# Data taken from PMC8249609 (Cell Research, 2021).
# B1: cartilage oligomeric matrix protein with a C-terminal His-tag (COMP-His) (natural protein)
# chain: not shown
# notes: cartilage oligomeric matrix protein, mouse, cDNA NM_016685.2; secreted into the conditioned medium of Sf9 cells; also called purified COMP; pentameric COMP protein
# Assays:
# [1] = biological target: T1, MBP-fusion protein of the COMP EGF domain (mouse, UniProt Q9R0G6 84-261); experiment: pull-down; MBP fusion proteins of COMP domains and GST-fused AT1a N-terminus, equimolar, 4 °C 2 h; amylose resin; western blot with anti-GST; conditions: both partners purified
# T1 construct: cartilage oligomeric matrix protein, mouse, EGF repeat domain; Vector pMAL-p5x; also called MBP-COMP-EGF; source: E. coli BL21, purified
# T1 sequence (looked up): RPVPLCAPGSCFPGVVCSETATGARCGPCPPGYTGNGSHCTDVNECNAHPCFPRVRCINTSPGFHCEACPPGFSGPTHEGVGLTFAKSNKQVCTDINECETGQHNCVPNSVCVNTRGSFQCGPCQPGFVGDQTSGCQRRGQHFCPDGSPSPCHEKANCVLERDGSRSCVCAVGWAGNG
# [2] = biological target: the molecule itself; experiment: native gel or EMSA; COMP-RLuc; 6% native PAGE without SDS and β-mercaptoethanol is the paper's method for the pentameric form of COMP; shown in Supplementary Fig. S11a
# [3] = biological target: B1; experiment: SPR; BiaCore 8 K; AT1 amine-coupled to a CM5 chip (~4500 RU); analyte in two-fold dilutions (COMP 0.43–110 nM), 120 s association, 200 s dissociation; 10 mM HEPES pH 7.4, 150 mM NaCl, 0.05% P20, 0.01% DDM, 0.002% CHS; 1:1 binding model; conditions: both partners purified
# [4] = biological target: T2, YFP-tagged AT1 receptor ( (human AT1 or mouse AT1a …, UniProt P30556 1-359)); experiment: FRET or BRET; as a12, cells pre-incubated with purified COMP (100 nM) for 30 min before AngII; conditions: partners not purified
# T2 construct: also called AT1-YFP; Flag-tagged AT1-YFP; source: HEK293T, transfected, in cells
# T2 sequence (looked up): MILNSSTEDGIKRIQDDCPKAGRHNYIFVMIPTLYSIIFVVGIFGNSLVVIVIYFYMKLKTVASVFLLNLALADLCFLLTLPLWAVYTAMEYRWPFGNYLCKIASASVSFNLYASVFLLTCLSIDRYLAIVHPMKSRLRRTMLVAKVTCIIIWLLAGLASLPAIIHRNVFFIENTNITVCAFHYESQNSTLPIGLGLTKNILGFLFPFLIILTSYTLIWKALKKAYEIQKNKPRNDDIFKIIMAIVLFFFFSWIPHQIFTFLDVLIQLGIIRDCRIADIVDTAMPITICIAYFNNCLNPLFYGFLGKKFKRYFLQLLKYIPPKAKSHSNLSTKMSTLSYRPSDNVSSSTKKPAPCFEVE
# [5] = biological target: T2, YFP-tagged AT1 receptor; experiment: FRET or BRET; HEK293T cells co-transfected with AT1-YFP and β-arrestin-1-RLuc or β-arrestin-2-RLuc; vehicle, then increasing AngII for 5 min; BRET ratio YFP/RLuc; conditions: partners not purified
# [6] = biological target: the molecule itself; experiment: SEC + native gel or EMSA; purified COMP; gel filtration chromatography and non-reduced native PAGE followed by western blotting; pentamer
binder,measurement,setting,value
"MALNSSTEDGIKRIQDDCPRAGRHSYI (domain or fragment, UniProt P29754 1-27, looked up, also called GST-fused N-terminus of AT1a; source: purified (vector pGEX-6P-1; host not clearly stated)) [GST-fused N-terminus of mouse AT1a receptor (aa 1-27)]",binding result,[1],binds
"mouse COMP fused with the modified Renilla luciferase at the C-terminus (natural protein, cartilage oligomeric matrix protein, mouse; also called COMP-RLuc; source: HEK293T, transfected; not shown: RLuc (modified Renilla luciferase), C-terminal, kept) not shown",stoichiometry N,[2],5
"AT1 receptor, residues 1-318, with N-terminal Flag-tag and BRIL (Flag-BRIL-AT1) (receptor, UniProt P30556 1-318, looked up, Order on the chain as printed: Flag-tag, BRIL, AT1; Detergent-solubilised (DDM/CHS in the running buffer); also called purified AT1 receptor; AngII type 1 receptor) MILNSSTEDGIKRIQDDCPKAGRHNYIFVMIPTLYSIIFVVGIFGNSLVVIVIYFYMKLKTVASVFLLNLALADLCFLLTLPLWAVYTAMEYRWPFGNYLCKIASASVSFNLYASVFLLTCLSIDRYLAIVHPMKSRLRRTMLVAKVTCIIIWLLAGLASLPAIIHRNVFFIENTNITVCAFHYESQNSTLPIGLGLTKNILGFLFPFLIILTSYTLIWKALKKAYEIQKNKPRNDDIFKIIMAIVLFFFFSWIPHQIFTFLDVLIQLGIIRDCRIADIVDTAMPITICIAYFNNCLNPLFYGFLGKKFKRYFLQLLK",Kd,[3],1.42 ± 0.014 nM
"β-arrestin-1 fused with Renilla luciferase (natural protein, UniProt P49407 1-418, looked up, β-arrestin-1; also called β-arrestin-1-RLuc; source: HEK293T, transfected, in cells) MGDKGTRVFKKASPNGKLTVYLGKRDFVDHIDLVDPVDGVVLVDPEYLKERRVYVTLTCAFRYGREDLDVLGLTFRKDLFVANVQSFPPAPEDKKPLTRLQERLIKKLGEHAYPFTFEIPPNLPCSVTLQPGPEDTGKACGVDYEVKAFCAENLEEKIHKRNSVRLVIRKVQYAPERPGPQPTAETTRQFLMSDKPLHLEASLDKEIYYHGEPISVNVHVTNNTNKTVKKIKISVRQYADICLFNTAQYKCPVAMEEADDTVAPSSTFCKVYTLTPFLANNREKRGLALDGKLKHEDTNLASSTLLREGANREILGIIVSYKVKVKLVVSRGGLLGDLASSDVAVELPFTLMHPKPKEEPPHREVPENETPVDTNLIELDTNDDDIVFEDFARQRLKGMKDDKEEEEDGTGSPQLNNR","EC50 of AngII for the recruitment (BRET), with 100 nM COMP",[4],2.16 nM
same,"EC50 of AngII for the recruitment (BRET), vehicle",[5],0.89 nM
B1,stoichiometry N,[6],5
